# From article PMC10770632 (STAR Protocols, 2023)
# T1: D3 fragment of DROSHA (amino acids 390–1365) (human, UniProt Q9NRR4 390-1365)
# T1 sequence (looked up): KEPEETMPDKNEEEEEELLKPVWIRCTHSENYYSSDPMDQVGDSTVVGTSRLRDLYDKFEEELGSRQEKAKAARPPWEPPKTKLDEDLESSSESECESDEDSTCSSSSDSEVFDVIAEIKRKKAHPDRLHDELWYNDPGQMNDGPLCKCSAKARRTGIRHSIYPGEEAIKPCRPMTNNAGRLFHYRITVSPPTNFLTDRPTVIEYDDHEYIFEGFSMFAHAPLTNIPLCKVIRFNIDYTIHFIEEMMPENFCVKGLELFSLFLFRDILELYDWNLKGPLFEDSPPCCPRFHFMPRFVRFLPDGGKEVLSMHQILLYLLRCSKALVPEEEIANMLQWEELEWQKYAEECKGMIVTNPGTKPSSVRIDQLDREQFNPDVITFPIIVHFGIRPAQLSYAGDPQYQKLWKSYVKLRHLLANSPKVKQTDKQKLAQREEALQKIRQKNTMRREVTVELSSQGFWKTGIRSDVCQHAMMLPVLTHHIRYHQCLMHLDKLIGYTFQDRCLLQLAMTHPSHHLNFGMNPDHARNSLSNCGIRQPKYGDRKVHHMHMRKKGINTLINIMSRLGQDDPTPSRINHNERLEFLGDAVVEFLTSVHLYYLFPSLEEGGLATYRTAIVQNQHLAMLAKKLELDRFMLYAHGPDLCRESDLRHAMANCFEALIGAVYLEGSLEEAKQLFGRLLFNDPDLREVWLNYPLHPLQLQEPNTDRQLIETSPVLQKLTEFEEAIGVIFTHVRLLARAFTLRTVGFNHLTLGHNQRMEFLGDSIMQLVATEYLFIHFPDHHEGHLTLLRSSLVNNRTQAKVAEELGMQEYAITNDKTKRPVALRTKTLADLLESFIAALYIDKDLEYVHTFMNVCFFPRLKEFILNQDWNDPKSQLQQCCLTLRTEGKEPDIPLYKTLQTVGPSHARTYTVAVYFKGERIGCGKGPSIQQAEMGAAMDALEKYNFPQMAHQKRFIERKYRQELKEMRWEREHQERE
# B1: G4 fragment of DGCR8 (amino acids 285–750), dimeric (domain or fragment, human, UniProt Q8WYQ5 285-750, looked up)
# chain: MTKIKTVLKSRGRPPTEPLPDGWIMTFHNSGVPVYLHRESRVVTWSRPYFLGTGSIRKHDPPLSSIPCLHYKKMKDNEEREQSSDLTPSGDVSPVKPLSRSAELEFPLDEPDSMGADPGPPDEKDPLGAEAAPGALGQVKAKVEVCKDESVDLEEFRSYLEKRFDFEQVTVKKFRTWAERRQFNREMKRKQAESERPILPANQKLITLSVQDAPTKKEFVINPNGKSEVCILHEYMQRVLKVRPVYNFFECENPSEPFGASVTIDGVTYGSGTASSKKLAKNKAARATLEILIPDFVKQTSEEKPKDSEELEYFNHISIEDSRVYELTSKAGLLSPYQILHECLKRNHGMGDTSIKFEVVPGKNQKSEYVMACGKHTVRGWCKNKRVGKQLASQKILQLLHPHVKNWGSLLRMYGRESSKMVKQETSDKSVIELQQYAKKNKPNLHILSKLQEEMKRLAEEREETR
# Target: T1, D3 fragment of DROSHA (amino acids …)
# Test: reconstitution by mixing purified proteins
binder,measurement,value
B1,binding result,binds
